Laboratory results reported in publication PMC8421374.

Key:
[1] = single-channel recordings at five voltages; conditions: glycan lost; control: WT Piezo1
[2] = cell-attached patch clamp, peak stretch-activated current, Piezo1-/- HEK293T; conditions: glycan lost; control: WT Piezo1-GFP
[3] = inactivation time constants, cell-attached patches; conditions: glycan lost; control: WT Piezo1-GFP
[4] = cell-attached patch clamp, split construct, Piezo1-/- HEK293T; conditions: glycan lost; control: WT split Piezo1
[5] = Fura-2 ratiometric Ca2+ imaging, 2 µM Yoda-1; conditions: glycan lost; control: WT Piezo1
[6] = live cell anti-HA surface labelling, confocal; conditions: glycan lost; control: WT Piezo1 with extracellular HA tag
[7] = immunogold TEM, membrane/cytoplasm labelling ratio; conditions: glycan lost; control: WT Piezo1

For human Piezo1: N295Q, the “other: unitary conductance, other: unitary conductance” value (“other: unitary conductance, other” for short) [1] was “no change”.
For human Piezo1: N295Q and N885Q, the “other: channel current” value [2] was “decreases”.
With human Piezo1: N658Q the “other: unitary conductance, other” value [1] was “no change” and the “other: channel current” value [2] was “decreases”.
In the case of human Piezo1: N658Q and N885Q, the “other: channel current” value [2] is reported as “decreases”.
In the case of human Piezo1: N885Q, the “other: unitary conductance, other” value [1] is reported as “no change” and the “other: channel current” value [2] is reported as “decreases”.
For human Piezo1: N892Q, the “other: unitary conductance, other” value [1] was “no change”.
For human Piezo1: N1095Q, the “other: unitary conductance, other” value [1] was “no change”.
For human Piezo1: N2294Q, the “other: channel inactivation kinetics” value [3] was “no change” and the “other: channel current” value [2] was “no change”.
For human Piezo1: N2294Q and N2331Q, the “other: channel current” value [4] was “abolishes”.
In the case of human Piezo1: N2294Q/N2331Q, the “other: Yoda-1-evoked Ca2+ influx” value [5] is reported as “abolishes” and the localisation_or_trafficking [6] is reported as “abolishes”.
In the case of human Piezo1: N2294Q/N2331Q (CapQQ), the localisation_or_trafficking [7] is reported as “decreases” and the “other: channel current” value [2] is reported as “decreases”.
With human Piezo1: N2331Q the “other: channel inactivation kinetics” value [3] was “no change” and the “other: channel current” value [2] was “no change”.
